# How the values were obtained:
# [1] = biological target: FokI endonuclease wild-type (Flavobacterium okeanokoites, UniProt P14870 P14870:2-579); assay: filter; with poly(dI-dC), 1 mM EDTA, 50 mM NaCl, 22 C; values only in figure; conditions: tags: expressed in E. coli RR1 from pRRSfokIR; label: 32P
# Procedure: (§1) The filter binding assays were performed in duplicate using *Fok*I or mutant enzymes and the four different synthetic substrates, SEQ ID NO:12, SEQ ID NO:13, hemi-methylated oligonucleotide of SEQ ID NO:12 and hemi-methylated oligonucleotide of SEQ ID NO:13. Nine different concentrations for each of the enzymes were made by serial dilutions ([…], 2000, 667, 222, 74.1, 24.7, 8.23, 2.74 and 0.914 nM). The enzymes were mixed with 40 nM of each labelled substrate along with 50 μg/ml p(dI-dC) and 50 μg/ml BSA in 50 μl of buffer A[10 mM Tris. phosphate (pH 8.0), 7 mM 2-mercaptoethanol, 1 mM EDTA, 50 mM NaCl, and 10% (vol/vol) glycerol]. The samples were incubated at 22° C. for 1 hr and then loaded on to nitrocellulose filters. The filters were washed twice with 0.5 ml of buffer A, dried and counted using the scintillation counter.
# (§2) Why does the four amino-acid residue insertions enable the mutant enzymes to cleave hemi-methylated DNA and not the larger inserts? The four codon insertions could increase the affinity of the mutants for the hemi-methylated DNA. The binding affinities of wild-type enzyme and both four codon insertion mutants were compared by filter binding assays using the synthetic oligonucleotide substrates (FIGS. 9A, 9B and 9C). The binding affinities were measured in the presence of non-specific DNA, poly dI-dC.
# [2] = biological target: FokI TAEL (+4) insertion mutant (Flavobacterium okeanokoites, UniProt P14870 P14870:2-579, insertion of TAEL after QLV in linker (linker SEQ 21)); assay: filter; similar to wild-type; conditions: label: 32P
# FokI TAEL (+4) insertion mutant, sequence (P14870 other isoform, or with tags, fused parts or gaps with the stated changes): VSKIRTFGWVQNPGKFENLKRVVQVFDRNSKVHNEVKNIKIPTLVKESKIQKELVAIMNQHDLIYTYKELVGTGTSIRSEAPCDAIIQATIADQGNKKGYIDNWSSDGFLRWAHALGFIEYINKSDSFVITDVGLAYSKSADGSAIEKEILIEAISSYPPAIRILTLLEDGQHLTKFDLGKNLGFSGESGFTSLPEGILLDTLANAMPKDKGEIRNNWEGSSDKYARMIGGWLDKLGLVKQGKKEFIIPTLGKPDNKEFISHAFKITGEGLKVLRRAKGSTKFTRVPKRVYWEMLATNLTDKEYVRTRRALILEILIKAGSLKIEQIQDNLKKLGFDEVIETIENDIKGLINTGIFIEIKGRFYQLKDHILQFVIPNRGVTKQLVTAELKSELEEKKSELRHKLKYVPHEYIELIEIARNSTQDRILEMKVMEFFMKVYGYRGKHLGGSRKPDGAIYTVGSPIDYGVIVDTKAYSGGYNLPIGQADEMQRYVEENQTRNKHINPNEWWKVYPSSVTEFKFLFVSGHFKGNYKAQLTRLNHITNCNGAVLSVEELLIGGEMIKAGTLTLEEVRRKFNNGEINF
# Procedure: as §1, §2
# FokI endonuclease wild-type, sequence (P14870 2-579, one chain of several): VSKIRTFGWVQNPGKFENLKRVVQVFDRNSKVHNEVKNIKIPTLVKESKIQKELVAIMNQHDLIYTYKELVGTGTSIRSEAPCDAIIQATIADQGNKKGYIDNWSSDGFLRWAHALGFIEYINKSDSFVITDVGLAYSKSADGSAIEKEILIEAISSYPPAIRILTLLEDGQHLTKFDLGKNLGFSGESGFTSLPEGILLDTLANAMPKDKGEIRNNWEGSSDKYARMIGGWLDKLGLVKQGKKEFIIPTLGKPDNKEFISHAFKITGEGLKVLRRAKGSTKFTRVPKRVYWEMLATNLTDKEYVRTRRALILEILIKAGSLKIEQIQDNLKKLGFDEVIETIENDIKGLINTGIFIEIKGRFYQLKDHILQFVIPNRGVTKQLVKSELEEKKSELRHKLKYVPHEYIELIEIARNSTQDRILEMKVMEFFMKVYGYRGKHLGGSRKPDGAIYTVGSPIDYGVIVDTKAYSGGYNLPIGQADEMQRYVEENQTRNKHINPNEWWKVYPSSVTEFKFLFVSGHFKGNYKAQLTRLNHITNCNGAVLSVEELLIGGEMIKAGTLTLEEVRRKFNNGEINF
binder,measurement,setting,value
unmethylated FokI substrate (dsDNA) DNA 1: CTAGAGTCAGAATTCGAAGACTTGCCGGATGATCTGCAGGCCAGCTGTGGCGTCTAAATTGA DNA 2: AGCTTCAATTTAGACGCCACAGCTGGCCTGCAGATCATCCGGCAAGTCTTCGAATTCTGACT,binding result,[1],binds
same,binding result,[2],binds
